Results on four molecules are retold here after article PMC9106292 (Science Advances, 2022).

Series [1] concerns the molecule itself. Nature of the series: cryo-EM structure.
Series [2] has as its target ASC-mCherry (full-length human ASC, TEV protease cleavage site, mCherry, C-terminal hexa-histidine tag) (human, UniProt Q9ULZ3 1-195). Put plainly: negative-stain EM.
Series [3] concerns the molecule itself. Put plainly: negative-stain EM.

Sequence of ASC-mCherry (full-length human ASC, TEV protease cleavage site, mCherry, C-terminal hexa-histidine tag) (Q9ULZ3 whole entry): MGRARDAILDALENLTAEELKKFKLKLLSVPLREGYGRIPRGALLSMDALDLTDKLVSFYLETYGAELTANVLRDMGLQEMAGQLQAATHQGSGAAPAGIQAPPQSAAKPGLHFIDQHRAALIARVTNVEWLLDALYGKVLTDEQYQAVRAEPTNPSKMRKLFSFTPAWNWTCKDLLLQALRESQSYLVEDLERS

B1: human NLRP3^PYD (residues 3 to 110; C108S) (domain or fragment)
chain: MASTRCKLARYLEDLEDVDLKKFKMHLEDYPPQKGCIPLPRGQTEKADHVDLATLMIDFNGEEKAWAMAVWIFAAINRRDLYEKAKRDEPKWGSDNARVSNPTVISQE
With B1, the binding result in series [1] and in series [2] was “binds” throughout.

B2: NLRP3^PYD (residues 3 to 110; C108S) CAPS mutant D21H (domain or fragment)
chain: MASTRCKLARYLEDLEDVHLKKFKMHLEDYPPQKGCIPLPRGQTEKADHVDLATLMIDFNGEEKAWAMAVWIFAAINRRDLYEKAKRDEPKWGSDNARVSNPTVISQE
For B2, in series [3], the binding result is recorded as “binds”.

B3: NLRP3^PYD (residues 3 to 110; C108S) CAPS mutant A77V (domain or fragment)
chain: MASTRCKLARYLEDLEDVDLKKFKMHLEDYPPQKGCIPLPRGQTEKADHVDLATLMIDFNGEEKAWAMAVWIFAVINRRDLYEKAKRDEPKWGSDNARVSNPTVISQE
B3: in series [3], the binding result is on record as “binds”.

B4: NLRP3^PYD (residues 3 to 110; C108S) CAPS mutant H51R (domain or fragment)
chain: MASTRCKLARYLEDLEDVDLKKFKMHLEDYPPQKGCIPLPRGQTEKADRVDLATLMIDFNGEEKAWAMAVWIFAAINRRDLYEKAKRDEPKWGSDNARVSNPTVISQE
On to B4, for which, in series [3], the binding result was “binds”.
